{"source": "patent US20210063414A1", "about": "“METHODS FOR PREVENTING AND/OR TREATING BONE LOSS CONDITIONS BY MODULATING IRISIN” (Dana-Farber Cancer Institute, Inc., priority 2018, published 2021)", "key": {"[1]": {"target": "T1, MLO-Y4 cell surface proteins (Mus musculus, UniProt P55292)", "T1 construct": "endogenous in cells; host or cells: MLO-Y4", "T1 sequence (P55292 136-902)": "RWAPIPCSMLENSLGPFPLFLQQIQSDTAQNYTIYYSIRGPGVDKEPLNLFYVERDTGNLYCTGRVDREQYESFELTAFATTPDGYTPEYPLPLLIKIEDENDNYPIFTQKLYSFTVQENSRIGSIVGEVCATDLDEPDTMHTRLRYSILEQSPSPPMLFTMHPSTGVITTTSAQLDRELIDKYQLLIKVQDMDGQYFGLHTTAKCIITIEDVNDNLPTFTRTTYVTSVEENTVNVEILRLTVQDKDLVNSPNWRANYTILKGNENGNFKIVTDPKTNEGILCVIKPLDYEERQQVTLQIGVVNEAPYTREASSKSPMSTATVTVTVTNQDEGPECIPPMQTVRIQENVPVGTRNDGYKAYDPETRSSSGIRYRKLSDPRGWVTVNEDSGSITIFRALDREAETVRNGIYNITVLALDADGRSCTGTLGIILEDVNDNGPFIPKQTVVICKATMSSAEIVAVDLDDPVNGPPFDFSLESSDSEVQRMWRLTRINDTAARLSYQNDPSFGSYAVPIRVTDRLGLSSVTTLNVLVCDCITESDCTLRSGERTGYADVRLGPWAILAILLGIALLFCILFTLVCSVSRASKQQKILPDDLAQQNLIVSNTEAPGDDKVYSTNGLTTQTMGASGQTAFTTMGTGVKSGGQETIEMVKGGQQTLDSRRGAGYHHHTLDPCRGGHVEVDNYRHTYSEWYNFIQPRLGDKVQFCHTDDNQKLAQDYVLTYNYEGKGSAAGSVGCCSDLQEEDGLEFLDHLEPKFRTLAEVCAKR", "test": "Crosslinking/co-immunoprecipitation/mass spectrometry (TMT quantitative proteomics) to identify irisin receptors", "type": "binding", "settings": "co-precipitated protein Dsc2 (DSC2_MOUSE)", "procedure,_shortened": "(§1)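 Relative protein abundance came from 6-plex TMT MS3 quantitation on an Orbitrap Fusion Lumos, after in-gel trypsin digestion of Coomassie-stained SDS-PAGE lanes. Input was a Ni-NTA pulldown (250 mM imidazole elution) of lysates from murine MLO-Y4 cells. These cells were treated on ice with His-tagged irisin or adipsin (10 nM, 20 min) in serum-free medium, then crosslinked with 1.5 mM DTSSP for 30 min.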"}, "[2]": {"target": "T2, MLO-Y4 cell surface proteins (Mus musculus, UniProt Q8R1J9)", "T2 construct": "endogenous in cells; host or cells: MLO-Y4", "T2 sequence (Q8R1J9 27-321)": "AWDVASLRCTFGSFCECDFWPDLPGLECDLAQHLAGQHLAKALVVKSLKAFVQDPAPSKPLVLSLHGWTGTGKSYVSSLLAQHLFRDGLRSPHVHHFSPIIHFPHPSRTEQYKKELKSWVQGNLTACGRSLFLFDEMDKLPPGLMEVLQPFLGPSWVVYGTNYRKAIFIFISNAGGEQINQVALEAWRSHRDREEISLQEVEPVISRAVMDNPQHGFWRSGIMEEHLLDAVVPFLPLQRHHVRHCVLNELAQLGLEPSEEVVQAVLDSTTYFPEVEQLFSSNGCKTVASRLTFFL", "test": "Crosslinking/co-immunoprecipitation/mass spectrometry (TMT quantitative proteomics) to identify irisin receptors", "type": "binding", "settings": "co-precipitated protein Tor2a (TOR2A_MOUSE)", "procedure,_shortened": "as §1"}}}
{"substance": "adipsin", "values": [{"measurement": "TMT signal-to-noise ratio", "setting": "[1]", "result": 93.7977}, {"measurement": "TMT signal-to-noise ratio", "setting": "[2]", "result": 696.28}]}
